This note sets out measurements from US20120076787A1 (published 2012).

The target in test [1] is T1, Recombinant human B7-1 Fc Chimera (RnD Systems, 140-B1-100), biotinylated (human, UniProt P33681 35-242, biotinylated (ECL biotinylation module, GE Healthcare, at a quarter of the kit recommended level)).
T1 construct: Bought reagent; also called biotinylated B7-1; Fc part of the bought chimera not given
T1 sequence (looked up): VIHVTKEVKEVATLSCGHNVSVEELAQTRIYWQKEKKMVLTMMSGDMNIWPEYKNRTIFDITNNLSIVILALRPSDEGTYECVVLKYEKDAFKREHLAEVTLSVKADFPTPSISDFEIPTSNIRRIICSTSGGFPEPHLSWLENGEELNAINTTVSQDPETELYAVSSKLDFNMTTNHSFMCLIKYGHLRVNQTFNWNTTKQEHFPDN
Briefly: bridging ELISA: coated VEGFR2 Fc, titrated control, detection with biotinylated B7-1 Fc and ExtrAvidin peroxidase. (In an ELISA, binding on a coated surface is turned into a signal by an enzyme label.)

Test [2] deals with T2, human TNFα (human, UniProt P01375 77-233).
T2 construct: also called TNF ligand; TNFα (Peprotech)
Briefly: assay not stated (description of the dAb in Example 11).

T2 sequence (P01375 77-233 limits assumed): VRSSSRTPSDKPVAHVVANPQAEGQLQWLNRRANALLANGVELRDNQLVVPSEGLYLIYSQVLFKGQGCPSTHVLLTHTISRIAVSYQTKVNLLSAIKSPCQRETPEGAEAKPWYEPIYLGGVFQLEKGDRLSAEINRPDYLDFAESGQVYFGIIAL

B1: BPC1801 (bispecific IGF1R-VEGFR2 antigen binding construct) (bispecific antibody, human IgG1, kappa)
heavy: not shown
light: DIVMTQSPLSLPVTPGEPASISCRSSQSIVQSNGDTYLEWYLQKPGQSPQLLIYRVSNRFSGVPDRFSGSGSGTDFTLKISRVEAEDVGVYYCFQGSHVPYTFGQGTKLEIKRTVAAPSVFIFPPSDEQLKSGTASVVCLLNNFYPREAKVQWKVDNALQSGNSQESVTEQDSKDSTYSLSSTLTLSKADYEKHKVYACEVTHQGLSSPVTKSFNRGEC
notes: Negative control of the VEGFR2/B7-1 bridging ELISA
Consider B1, for which the binding result in test [1] is reported as “no binding”.

B2: PEP1-5-19 (anti-TNFα dAb) (other)
VL: DIQMTQSPSSLSASVGDRVTITCRASQSIDSYLHWYQQKPGKAPKLLIYSASELQSGVPSRFSGSGSGTDFTLTISSLQPEDFATYYCQQVVWRPFTFGQGTKVEIKR
notes: Vk domain antibody (dAb), monomer; also called Anti-TNFα Vk dAb (PEP1-5-19)
As to B2, the Kd (in general, the equilibrium constant for the complex coming apart) in test [2] was ~8 nM.
